The source of these data is patent US20090240037A1 (IMMUNOMEDICS, published 2009).

By Kd is commonly meant the concentration at which binding is half-saturated. Low readings indicate a tighter complex, high ones a looser complex. A word on the IC50: it is the midpoint of a concentration-inhibition curve.

The target of experiment [1] is CD20 (human B lymphocyte-restricted differentiation antigen Bp35) on Raji cells (human) (UniProt P11836). As to the kind of experiment: cell surface competitive binding on Raji cells; unlabeled murine A20 against tracer 125I-labeled murine A20.
Experiment [2] has the same target. As to the kind of experiment: cell surface competitive binding on Raji cells, 4 C, 1-2 h; unlabeled murine A20 against tracer 125I-labeled murine A20.
The target is the same in experiment [3]. Description: staining of NHL cell lines (Raji, Ramos, RL, Daudi, Su-DHL-6).
The target is the same in experiment [4]. Description: direct binding of radiolabeled MAb to Raji cells, Scatchard plot analysis.
Experiment [5] shares this target. Description: cell surface competitive binding on Raji cells, 4 C, 1-2 h; competitor tracer 125I-labeled rituximab; column head IC50 nM.
For experiment [6] the target is unchanged. Description: cell surface competitive binding on Raji cells, 4 C, 1-2 h; unlabeled rituximab against tracer 125I-labeled c2B8/rituximab.
Experiment [7] has the same target. As to the kind of experiment: cell surface competitive binding on Raji cells, 4 C, 1-2 h; unlabeled rituximab against tracer 125I-labeled rituximab; column head IC50 nM.
In experiment [8] the target is T1, soluble CEA (Scripps Laboratories) (UniProt P06731 35-685, limits assumed).
T1 construct: Coated at 0.5 ug/well in the ELISA; also injected as soluble analyte in BIAcore
T1 sequence (looked up): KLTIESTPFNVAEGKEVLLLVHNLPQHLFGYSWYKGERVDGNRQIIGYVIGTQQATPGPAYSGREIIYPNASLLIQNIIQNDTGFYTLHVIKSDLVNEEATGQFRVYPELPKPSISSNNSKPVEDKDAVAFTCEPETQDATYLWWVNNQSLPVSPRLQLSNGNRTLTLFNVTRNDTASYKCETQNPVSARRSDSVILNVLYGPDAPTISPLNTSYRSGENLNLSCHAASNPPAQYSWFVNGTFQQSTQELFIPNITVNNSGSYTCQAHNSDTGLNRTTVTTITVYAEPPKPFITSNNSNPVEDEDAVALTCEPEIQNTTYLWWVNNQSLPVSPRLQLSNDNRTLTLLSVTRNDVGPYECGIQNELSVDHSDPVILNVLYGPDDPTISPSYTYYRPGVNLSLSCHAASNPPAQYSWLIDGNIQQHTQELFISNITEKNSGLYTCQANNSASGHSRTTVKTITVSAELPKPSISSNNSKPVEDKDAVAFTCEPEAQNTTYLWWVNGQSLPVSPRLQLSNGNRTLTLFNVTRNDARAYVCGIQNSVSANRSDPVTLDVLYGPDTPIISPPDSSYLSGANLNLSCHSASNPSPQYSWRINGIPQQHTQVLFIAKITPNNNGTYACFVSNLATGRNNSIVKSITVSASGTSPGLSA
Description: competitive ELISA on CEA-coated wells (0.5 ug/well); competitor HRP-conjugated hMN14 IgG, 1 nM. How it is done:
FIG. 15 is a graphical representation of the results of a competitive enzyme-linked immunosorbent assay (ELISA). […] The % inhibition is plotted vs. nM concentration of sample.
Microtiter plates were coated with 0.5 μg/well with soluble CEA (Scripps Laboratories).
On the technique in general: In an ELISA, binding on a coated surface is turned into a signal by an enzyme label.

The target of experiment [9] is T1, soluble CEA (Scripps Laboratories). Description: ELISA on CEA.
The target of experiment [10] is T2, CD20 (human B lymphocyte-restricted differentiation antigen Bp35) on Raji cells (human, UniProt P11836 1-297).
T2 construct: whole, on cells; The assays name the cells (Raji, Ramos, RL, Daudi, Su-DHL-6); also called CD20 antigen; hCD20
T2 sequence (looked up): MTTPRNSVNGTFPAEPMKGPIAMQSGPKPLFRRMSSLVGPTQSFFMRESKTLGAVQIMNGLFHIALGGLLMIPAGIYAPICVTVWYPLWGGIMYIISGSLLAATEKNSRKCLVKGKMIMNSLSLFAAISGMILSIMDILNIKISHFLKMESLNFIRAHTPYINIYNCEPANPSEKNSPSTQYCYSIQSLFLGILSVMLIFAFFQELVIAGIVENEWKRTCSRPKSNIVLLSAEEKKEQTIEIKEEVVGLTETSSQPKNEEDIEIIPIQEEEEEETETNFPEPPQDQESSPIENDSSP
As to the kind of experiment: direct binding of radiolabeled MAb to Raji cells, Scatchard plot analysis.

Experiment [11] concerns the target T2, CD20 (human B lymphocyte-restricted …). As to the kind of experiment: cell surface competitive binding on Raji cells; competitor tracer 125I-labeled murine A20. How it is done:
(§1) Unbound Abs were removed by washing the cells in PBS. The radioactivity associated with cells was determined after washing.

For experiment [12] the target is unchanged. Description: cell surface competitive binding on Raji cells, 4 C, 1-2 h; competitor tracer 125I-labeled rituximab. How it is done:
(§2) Unbound Abs were removed by washing the cells with PBS. Radioactivity associated with the cells was determined after washing.

Experiment [13] shares this target. Description: cell surface competitive binding on Raji cells, 4 C, 1-2 h; competitor tracer 125I-labeled murine 2B8. How it is done:
as §2

Experiment [14] shares this target. Description: cell surface competitive binding on Raji cells, 4 C, 1-2 h; competitor tracer 125I-labeled c2B8/rituximab.
Experiment [15] concerns the target T1, soluble CEA (Scripps Laboratories). As to the kind of experiment: competitive ELISA; antigen not given, CEA per paragraph 119.
In experiment [16] the target is T2, CD20 (human B lymphocyte-restricted …). Description: cell surface competitive binding on Raji cells, 4 C, 1-2 h; competitor tracer 125I-labeled murine A20. Here is the method:
as §1

Experiment [17] shares this target. As to the kind of experiment: cell surface competitive binding on Raji cells, 4 C, 1-2 h; competitor tracer 125I-labeled rituximab; column head IC50 nM. How it is done:
as §2

Numbering of substitutions follows the chain as printed. A value given as a limit tells only on which side of the number the result lay.

For the molecule A20, murine anti-CD20 MAb (antibody), the values for the IC50 (read off the curve) in experiment [1] and in experiment [2] were 20 nM and 4 nM, respectively.
In experiment [3], “hA20, humanized anti-CD20 antibody (variant hA20-1 or hA20-2 not specified)” yielded a percent of cells stained of more than 99%. This molecule also came in with a Kd in experiment [4] of 4.2 nM.
murine B1 anti-CD20 antibody came in with an IC50 in [5] of 34 nM.
In [3], “rituximab (IDEC Pharmaceuticals Corp.) (antibody)” had a percent of cells stained of more than 99%. In [6], this molecule displayed an IC50 (read off the curve) of 7 nM. Moreover, the IC50 in experiment [7] turned out to be 5 nM.

B1: BS1.5 (679 x hMN14 bispecific diabody: variant 2) (bispecific antibody)
chain 1: MEVQLVESGGDLVKPGGSLKLSCAASGFTFSIYTMSWLRQTPEKRLEWVATLSGDGDDIYYPDSVKGRFTISRDNAKNNLYLQMNSLRSADTALYYCARVRLGDWDFDVWGQGTTVSVSSGGGGSDIQLTQSPSSLSASVGDRVTITCKASQDVGTSVAWYQQKPGKAPKLLIYWTSTRHTGVPSRFSGSGSGTDFTFTISSLQPEDIATYYCQQYSLYRSFGQGTKVEIKRLEHHHHHH
chain 2: MEVQLVESGGGVVQPGRSLRLSCSASGFDFTTYWMSWVRQAPGKGLEWIGEIHPDSSTINYAPSLKDRFTISRDNAKNTLFLQMDSLRPEDTGVYFCASLYFGFPWFAYWGQGTPVTVSGGGGSDIVMSQSPSSLAVSPGEKVTMTCKSSQSLFNSRTRKNYLGWYQQKPGQSPKLLIYWASTRESGVPDRFTGSGSGTDFTLTINSVQSEDLAVYYCTQVYYLCTFGAGTKLELKRLEHHHHHH
notes: Heterodimer of the two polypeptides; pelB leaders removed; copies: 1 + 1
With B1, the binding result in [8] is reported as “binds”.

B2: BS1 (679 x hMN14 bispecific diabody: variant 1) (bispecific antibody)
chain 1: B1 chain 1 with Q4I
chain 2: B1 chain 2
notes: as for B1
With B2, in [9], the binding result is recorded as “binds”.

B3: BS2 (679 x hMN14 bispecific diabody: variant 3) (bispecific antibody)
chain 1: B1 chain 1
chain 2: B1 chain 2 with C225S
notes: as for B1
Take B3: in [9], the binding result is given as “binds”.

B4: cA20, chimeric anti-CD20 antibody (antibody, V domains shown)
VH: QVQLQQPGAELVKPGASVKMSCKASGYTFTSYNMHWVKQTPGRGLEWIGAIYPGNGDTSYNQKFKGKATLTADKSSSTAYMQLSSLTSEDSAVYYCARSTYYGGDWYFDVWGQGTTVTVSS
VL: DIQLTQSPAILSASPGEKVTMTCRASSSVSYIHWFQQKPGSSPKPWIYATSNLASGVPVRFSGSGSGTSYSLTISRVEAEDAATYYCQQWTSNPPTFGGGTKLEIK
notes: Murine A20 variable domains with human constant regions; expressed in Sp2/0 cells; also called chimeric A20
Take B4: the Kd in [10] was found to be 2.9 nM. Moreover, the “IC50 (read off the curve)” value was approximately 10 nM in experiment [11], approximately 9 nM in experiment [12], approximately 9 nM in experiment [13] and approximately 6 nM in [14].

B5: hMN14 diabody (hMN14-scFv-L5) (scFv)
scFv: MEVQLVESGGGVVQPGRSLRLSCSASGFDFTTYWMSWVRQAPGKGLEWIGEIHPDSSTINYAPSLKDRFTISRDNAKNTLFLQMDSLRPEDTGVYFCASLYFGFPWFAYWGQGTPVTVSGGGGSDIQLTQSPSSLSASVGDRVTITCKASQDVGTSVAWYQQKPGKAPKLLIYWTSTRHTGVPSRFSGSGSGTDFTFTISSLQPEDIATYYCQQYSLYRSFGQGTKVEIKRLEHHHHHH
modifications: Non-covalent homodimer (diabody) of two copies of this chain.
notes: Non-covalent homodimer of the scFv; the pelB leader is removed in the mature polypeptide; One codon before the VH and two between the VK and the tag are not spelled out in the text
Take B5: in experiment [15], the binding result is on record as “binds”.

B6: hA20-1, humanized anti-CD20 antibody (hA20VH1 + hA20Vk) (antibody, human IgG1, V domains shown)
VH: QVQLQQSGAEVKKPGSSVKVSCKASGYTFTSYNMHWVKQAPGQGLEWIGAIYPGNGDTSYNQKFKGKATLTADESTNTAYMELSSLRSEDTAFYYCARSTYYGGDWYFDVWGQGTTVTVSS
VL: DIQLTQSPSSLSASVGDRVTMTCRASSSVSYIHWFQQKPGKAPKPWIYATSNLASGVPVRFSGSGSGTDYTFTISSLQPEDIATYYCQQWTSNPPTFGGGTKLEIKR
On to B6, for which the results for the “IC50 (read off the curve)” value in experiment [16], in [13] and in experiment [14] were approximately 4 nM, approximately 10 nM and approximately 9 nM, respectively. This molecule also yielded an IC50 in experiment [17] of 6.8 nM.

B7: hA20-2, humanized anti-CD20 antibody (hA20VH2 + hA20Vk) (antibody, human IgG1, V domains shown)
VH: B6 VH with T30S, K38R, I48M, K67R, L70I, Y95F
VL: B6 VL
With B7, the “IC50 (read off the curve)” value in [16] is approximately 4 nM; in experiment [13], approximately 10 nM.
